Experiment [1] deals with recombinant HA, subtype H1 (A/New Caledonia/20/99 (H1N1)) (influenza A virus A/New Caledonia/20/99 (H1N1)) (UniProt Q289M7). The experiment can be described thus: ELISA, coated HA, IgG 5 µg/ml. A general note: ELISA stands for enzyme-linked immunosorbent assay.
Experiment [2] concerns the target recombinant HA, subtype H3 (A/Wyoming/3/2003(H3N2)) (influenza A virus A/Wyoming/3/2003 (H3N2)). The experiment can be described thus: ELISA, coated HA, IgG 5 µg/ml.
Experiment [3] addresses recombinant HA, subtype H5 (A/Vietnam/1203/2004 (H5N1)) (influenza A virus A/Vietnam/1203/2004 (H5N1)) (UniProt Q80A26). The experiment can be described thus: ELISA, coated HA, IgG 5 µg/ml.
The target in experiment [4] is recombinant HA, subtype H7 (A/Netherlands/219/03 (H7N7)) (influenza A virus A/Netherlands/219/03 (H7N7)). Kind of experiment: ELISA, coated HA, IgG 5 µg/ml.
Experiment [5] has as its target recombinant HA, subtype H9 (A/Hong Kong/1073/99 (H9N2)) (influenza A virus A/Hong Kong/1073/99 (H9N2)). Kind of experiment: ELISA, coated HA, IgG 5 µg/ml.
Experiment [6] has as its target full-length HA from isolate A/Vietnam/1194/2004 (H5N1TV) on PER.C6 cells (influenza A virus A/Vietnam/1194/2004 (H5N1)) (UniProt Q80A26). The experiment can be described thus: flow cytometry, transfected PER.C6 cells. Background: Flow cytometry measures light scatter and fluorescence of single cells or particles in a stream.
Experiment [7] has the same target. The experiment can be described thus: flow cytometry, transfected PER.C6 cells, separate experiment.

CR3014 (antibody): the OD 492 nm in experiment [1] stood at 0.08 OD 492 nm; in experiment [2], 0.07 OD 492 nm; in experiment [3], 0.09 OD 492 nm; in experiment [4], 0.17 OD 492 nm; in experiment [5], 0.16 OD 492 nm. The flow cytometry signal at 0.1 µg/ml in experiment [6] came to 6.21; in experiment [7], 10.5. In addition, the figures for the flow cytometry signal at 1 µg/ml in experiment [6] and in experiment [7] were 10 and 7.95, respectively. The flow cytometry signal at 10 µg/ml in experiment [6] amounted to 13.1; in experiment [7], 9.15.
Consider CR6261 (antibody), for which the OD 492 nm in experiment [4] was 0.31 OD 492 nm.

Source of the values: US20090311265A1.
